# Source: paper doi:10.1101/2025.06.05.658000
# Columns and labels:
# [1] = target: HLA-DR (DRA1*01:01 / DRB1*11:04), soluble knob-into-hole Fc heterodimer (human); test: ELISA
# [2] = target: HLA-DR (DRA1*01:01 / DRB1*04:05), soluble knob-into-hole Fc heterodimer (human); test: ELISA
Substance,fold decline of binding affinity compared to RBD WT [1] [fold],fold decline of binding affinity compared to RBD WT [2] [fold]
SARS-CoV-2 RBD peptide RBD447-461 of the BA.2.86 variant (from UniProt P0DTC2 447-461),> 16,> 16
SARS-CoV-2 RBD peptide RBD447-461 of the Omicron BA.5 variant (from UniProt P0DTC2 447-461),> 16,> 16
